This note sets out measurements from IntAct's records for PubMed 21070972.

First the molecules themselves.
B1: tRNA endonuclease ANKZF1 (Mus musculus), Q80UU1 (parent)
chain: MAKPAGDAAVGSRSGELFLPSVSSSATSPAPSAAPAPASVSLLSLNGEAPLIRGLSLVSQAPGEALAWAPRTSCPGENTSSGGKVSPYSLEISEKLFCSACDQIFQNHQEQREHYKLDWHRFNLKQRLKNKPLLSASDFEQQSSTGDLSSISGSDDTDSSSEEDLLPLDEGRAESEKPNRPPGFYPHRVLFKNAQGQFLYAYRCVLGPHQIPPEKAELLLQNLQNGGPRYYVVLMAAAGHFAGAIFQGREVVAHKTFHRYTVRAKRGTAQGLQDAHGRASRSAGANLRRYNEAMLYKDVRNLLAGPIWSKALGEAETVLFRAPRSGRSLFFGGQGAPLQRDDPRLWDIPLTTRRPTFGELQRVLHKLTTLQVYDEDPREMVRFHSPETHWKPVREERKKDTEKEKTKVPSDANKPLGQDEEPLKQGSESQEEDGSEVELELVELTLGTLDLREFEVLPKRRRRRKKKERSQEQQCGAHGPLPQQPQDEPFSQPTQEVETPLDTLVYEAKAPGQPELWDTLLAACRAGEVEVLKLQLATGLVDPGVKSLLNAPLGSGGFTLLHAAAAAGRGLVVRLLLEAGADPTVQDSRARPPYTVAADKSTRNEFRRFMEKNLDAYDYNKARVPGPLTQEMEARQATRKKEQKAARRQREQQQRKQREQEEQEQEEQRRFAALSDREKRALAAERRLAAQLGAPSPPVPDSAVASAGRCWSCGVSLQGLIPFHYLDFSFCSTRCLRDHRSQAGRPSS
B2: Cell division control protein 48 (Saccharomyces cerevisiae), P25694 (parent)
chain: MGEEHKPLLDASGVDPREEDKTATAILRRKKKDNMLLVDDAINDDNSVIAINSNTMDKLELFRGDTVLVKGKKRKDTVLIVLIDDELEDGACRINRVVRNNLRIRLGDLVTIHPCPDIKYATRISVLPIADTIEGITGNLFDVFLKPYFVEAYRPVRKGDHFVVRGGMRQVEFKVVDVEPEEYAVVAQDTIIHWEGEPINREDEENNMNEVGYDDIGGCRKQMAQIREMVELPLRHPQLFKAIGIKPPRGVLMYGPPGTGKTLMARAVANETGAFFFLINGPEVMSKMAGESESNLRKAFEEAEKNAPAIIFIDEIDSIAPKRDKTNGEVERRVVSQLLTLMDGMKARSNVVVIAATNRPNSIDPALRRFGRFDREVDIGIPDATGRLEVLRIHTKNMKLADDVDLEALAAETHGYVGADIASLCSEAAMQQIREKMDLIDLDEDEIDAEVLDSLGVTMDNFRFALGNSNPSALRETVVESVNVTWDDVGGLDEIKEELKETVEYPVLHPDQYTKFGLSPSKGVLFYGPPGTGKTLLAKAVATEVSANFISVKGPELLSMWYGESESNIRDIFDKARAAAPTVVFLDELDSIAKARGGSLGDAGGASDRVVNQLLTEMDGMNAKKNVFVIGATNRPDQIDPAILRPGRLDQLIYVPLPDENARLSILNAQLRKTPLEPGLELTAIAKATQGFSGADLLYIVQRAAKYAIKDSIEAHRQHEAEKEVKVEGEDVEMTDEGAKAEQEPEVDPVPYITKEHFAEAMKTAKRSVSDAELRRYEAYSQQMKASRGQFSNFNFNDAPLGTTATDNANSNNSAPSGAGAAFGSNAEEDDDLYS
partner: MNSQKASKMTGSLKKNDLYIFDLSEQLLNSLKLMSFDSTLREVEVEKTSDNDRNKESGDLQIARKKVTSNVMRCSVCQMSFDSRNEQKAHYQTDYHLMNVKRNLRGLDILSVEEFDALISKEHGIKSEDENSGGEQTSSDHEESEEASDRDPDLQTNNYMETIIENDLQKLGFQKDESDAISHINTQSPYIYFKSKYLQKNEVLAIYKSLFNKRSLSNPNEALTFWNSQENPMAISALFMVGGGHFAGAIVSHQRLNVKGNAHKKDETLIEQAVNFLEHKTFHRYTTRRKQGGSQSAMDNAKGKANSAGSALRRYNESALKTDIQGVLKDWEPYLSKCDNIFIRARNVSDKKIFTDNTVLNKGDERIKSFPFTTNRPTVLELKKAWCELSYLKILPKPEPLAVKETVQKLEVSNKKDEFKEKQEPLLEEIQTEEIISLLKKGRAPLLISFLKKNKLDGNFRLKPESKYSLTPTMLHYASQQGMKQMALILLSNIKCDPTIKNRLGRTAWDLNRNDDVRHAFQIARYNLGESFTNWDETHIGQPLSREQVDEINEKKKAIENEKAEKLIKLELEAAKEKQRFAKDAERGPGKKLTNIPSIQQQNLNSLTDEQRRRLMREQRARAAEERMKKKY

The variants in one test derive from B1. To be noted: with tera_mouse Vcp.
For the variant E685A;R686A;R687A, the “effect of a mutation on the interaction” value is reported as “decreasing interaction strength”.

In a further test the parent is B2. To be noted: with vms1_yeast VMS1, Q04311.
S565E: the “effect of a mutation on the interaction” value was “decreasing interaction strength”.
